In patent US20050250935A1 (priority 2004, published 2005):

human follicle—stimulating hormone [FSH]
estimated FSH activity, in vivo biological assay in rat: 6578 IU per mg protein | FSH activity in the lower sample after centrifugation, in vivo test (rat): undetectable | FSH activity in the upper sample after centrifugation, in vivo test (rat): 97%
